The record followed here is patent US20140357845A1.

The target in this experiment is miniHA (A/Brisbane/59/2007) (influenza A virus H1N1), A8C8J4. Nature of the experiment: FACS. Conditions: remark: other sources report otherwise.

B1: CR6261 (antibody, V domains shown)
VH: EVQLVESGAEVKKPGSSVKVSCKASGGPFRSYAISWVRQAPGQGPEWMGGIIPIFGTTKYAPKFQGRVTITADDFAGTVYMELSSLRSEDTAMYYCAKHMGYQVRETMDVWGKGTTVTVSS
VL: QSVLTQPPSVSAAPGQKVTISCSGSSSNIGNDYVSWYQQLPGTAPKLLIYDNNKRPSGIPDRFSGSKSGTSATLGITGLQTGDEANYYCATWDRRPTAYVVFGGGTKLTVLG
For the molecule B1, the % positive cells was 1 to 3%.
